In patent US20250163169A1, “ANTIBODIES FOR PREVENTING THE CLEAVAGE OF CD95L BY METALLOPROTEASES” (INSTITUT NATIONAL DE LA SANTÉ ET DE LA RECHERCHE MÉDICALE, priority 2022, published 2025):

B1: 9F5: Monoclonal antibody targeting Metalloprotease-Cleavage Sites of CD95L; light chain SEQ ID NO:18, heavy chain SEQ ID NO:19 (antibody, listed as Mus musculus, V domains shown)
VH: QVQLQQSGAELAKPGASVKMSCKASGYTFTTYWMHWVKQRPGQDLEWIGYINPRNGYTEYNQNFKDKATLTADKSSTTAFMQLSSLTSEDSALYYCAVDLGYWGQGTLVTVSA
VL: DIVMTQSPSSLAMSVGQKVTMNCKSSQSLLSSRNQKTYLAWYQQKPGQSPKLLVYFTSTRASGVPDRFIGSGGTDFTLTISSVQAEDLALYYCQQHYNTPWTFGGGTKLEIK
B2: 3C7: Monoclonal antibody targeting Metalloprotease-Cleavage Sites of CD95L; light chain SEQ ID NO:16, heavy chain SEQ ID NO:17 (antibody, listed as Mus musculus, V domains shown)
VH: QVQLQQSGAELAKPGASVKMSCKTSGYTFTSYWMHWVKQRPGQGLEWIGYINPNTGYTEYIQRFRDKATLTADKSSGTAYMQLSSLTSEDSAVYYCAVDLGYWGQGTLVTVSA
VL: DIVMTQSPSSLAMSVGQKVTMSCKSSQSLLSSRTQKHYLAWYQQKPGQSPKLLVYFTSTRESGVPDRFIGSGSGTDFTLTISSVQAEDLALYYCKQHYNTPWTFGGGTKLEIK

How the values were obtained:
CD95L cleavage by MMP2 = test: Cleavage of recombinant Ig-CD95L by MMP2 in vitro, cleaved fragment monitored by immunoblotting; type: biochemical, Homo sapiens; details: Ig-CD95L 100 ng pre-incubated 15 min with antibody (100 pg/mL), then MMP 1 h
Chain of CD95L cleavage by MMP2 (P48023 103-281 limits assumed): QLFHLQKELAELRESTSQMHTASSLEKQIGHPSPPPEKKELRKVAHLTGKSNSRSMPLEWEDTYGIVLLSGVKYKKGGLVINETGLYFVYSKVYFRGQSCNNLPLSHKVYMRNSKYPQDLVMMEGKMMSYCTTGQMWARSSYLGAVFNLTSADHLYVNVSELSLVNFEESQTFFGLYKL
Description: (§1) FIG. 2. Monoclonal antibodies targeting the Metalloprotease-Cleavage Sites of CD95L (MCSCs). A. Left panel: The extracellular region of CD95L encompassing amino acid residues 102 to 281 can be cleaved by metalloproteases at different sites. Arrows represent putative cleavage site in CD95L sequence. Right panel: Using three peptides (peptides 1, 2 and 3) covering most of the MCSCs of CD95L, we have generated monoclonal antibodies. Indicated peptides were injected in mice to generate monoclonal antibodies and three different hybridoma were selected regarding their ability to bind CD95L. According to their affinity for the indicated peptides (assessed using ELISA), the 3C7 epitope should cover the […] sequence (SEQ ID NO:24). […] The metalloprotease-cleaved fragment of Ig-CD95L (CD95L devoid of its released Ig domain of gp190) was monitored by immunoblotting. […] CD95L-expressing leukemic T cell 1A12 was incubated for 24 h with indicated antibodies ([…]) or the pan-MMP inhibitor GM6001 (10 μM) and the expression level of membrane-bound CD95L was assessed by flow cytometry. […]
(§2) We have generated different extracellular regions of CD95L fused to large domains including the Ig domain of the gp190 (LIF receptor). […] The privileged cleavage sites (^113EL^114 for MMPs and ^129KQ^130 for ADAM) were then determined from MS/MS sequencing of the resulting cleavage products. […]

CD95L cleavage by MMP3 = test: Cleavage of recombinant Ig-CD95L by MMP3 in vitro, cleaved fragment monitored by immunoblotting; type: biochemical, Homo sapiens; details: Ig-CD95L 100 ng pre-incubated 15 min with antibody (100 pg/mL), then MMP 1 h
Chain of CD95L cleavage by MMP3 (P48023 103-281 limits assumed): as above
Description: as §1, §2

[1] = system: CD95L-expressing leukemic T cell 1A12; test: Expression level of membrane-bound CD95L on 1A12 cells by flow cytometry; type: cell-based; details: 24 h, antibodies 10 pg/mL, GM6001 10 μM
Description: (§3) FIG. 2. Monoclonal antibodies targeting the Metalloprotease-Cleavage Sites of CD95L (MCSCs). […] Arrows represent putative cleavage site in CD95L sequence. […] Indicated peptides were injected in mice to generate monoclonal antibodies and three different hybridoma were selected regarding their ability to bind CD95L. […] B. Recombinant Ig-CD95L (100 ng) was pre-incubated for 15 min with indicated antibodies (100 pg/mL) and then treated for 1h with the indicated MMPs. The metalloprotease-cleaved fragment of Ig-CD95L (CD95L devoid of its released Ig domain of gp190) was monitored by immunoblotting. C. CD95L-expressing leukemic T cell 1A12 was incubated for 24 h with indicated antibodies ([…]) or the pan-MMP inhibitor GM6001 (10 μM) and the expression level of membrane-bound CD95L was assessed by flow cytometry. D. Supernatants were harvested from cells treated in C and the metalloprotease-cleaved CD95L was dosed by ELISA (Diaclone).

Jurkat cells = test: Jurkat cell death induced by mAb-pre-treated 1A12 cells, drop of mitochondrial transmembrane potential (DIOC6); type: cell-based; details: 1A12 cells pre-treated 24 hours with 10 μg/mL mAb, then 4 hours with Jurkat cells
Description: (§4) FIG. 3. Antibody targeting the Metalloprotease-Cleavage Sites of CD95L (MCSCs) blocks the non-apoptotic functions of CD95L without affecting its apoptotic ones. A. WR19L (CD95L−) or 1A12 (CD95L+) cells were placed in the lower chamber of a Boyden chamber assay in the presence of the indicated mAbs ([…]). Triple negative breast cancer cell MDA-MB-231 was added to the upper part of the chamber and cell migration due to the gradient of metalloprotease-cleaved CD95L was evaluated after 24 hours by fixing and staining (Giemsa) migrating cells covering the lower side of the porous membrane. Left panel: Pictures of the Giemsa-stained MDA-MB-231 cells that migrated to the lower side of the membrane in the presence of WR19L (CD95L−) or 1A12 (CD95L+) cells and with isotypic (9E10) or anti-MCSC (3C7) monoclonal antibody. Right panel: Giemsa-stained MDA-MB-231 cells were lysed and absorbance was measured at a wavelength of 560 nm. Values represent the means and SEM of three independently performed experiments. **p<0.01 as calculated using two-tailed Mann-Whitney test. B. Upper panel: Jurkat cells are sensitive to the CD95-mediated apoptotic signal. […] Cell death was monitored by measuring the drop of mitochondrial transmembrane potential (Δψm). […] Cell death was monitored by measuring the drop of mitochondrial transmembrane potential (Δψm). […]

[2] = system: triple negative breast cancer cells MDA-MB-231; test: Boyden chamber assay, migration of MDA-MB-231 cells towards 1A12 (CD95L+) cells; type: cell-based; details: 1A12 (CD95L+) cells in lower chamber, mAb 10 pg/mL, 24 hours
Description: as §4

[3] = system: s-CD95L release from 1A12 cells; test: Metalloprotease-cleaved CD95L dosed by ELISA in supernatants of 1A12 cells; type: cell-based; details: 1A12 cells treated 24 hours, vs isotype (anti-myc 9E10 mAb) control
Description: as §3

Row | Molecule | Cleavage of CD95L by MMP2 in vitro (CD95L cleavage by MMP2) | Cleavage of CD95L by MMP3 in vitro (CD95L cleavage by MMP3) | Expression level of membrane-bound CD95L [1] | Apoptotic function of membrane-bound CD95L (Jurkat cells) | Generation of s-CD95L promoting migration of MDA-MB-231 cells [2] | Concentrations of s-CD95L in supernatant [3]
1 | B1 | efficiently abrogated the cleavage | efficiently abrogated the cleavage | did not alter | – | – | –
2 | B2 | efficiently abrogated the cleavage | efficiently abrogated the cleavage | augmentation of m-CD95L similar to that observed with the broad spectrum MMP inhibitor GM6001 | did not prevent the apoptotic function | inhibited | significantly reduced
